Here are results for 10 molecules from patent US20220267403A1 (FRED HUTCHINSON CANCER RESEARCH CENTER, published 2022).

For assay [1], the target named is T1, 5T4 17-25 variant R1A (alanine-substituted) peptide on HLA-A*02:01 (human).
T1 peptide: ALARLALVL
As to the kind of experiment: killing.

Assay [2] deals with T2, 5T4 17-25 variant R4A (alanine-substituted) peptide on HLA-A*02:01 (human).
T2 peptide: RLAALALVL
Description: killing.

Assay [3] concerns the target T3, DDX3Y peptide on HLA-A*02:01 (human).
T3 peptide: FLLDILGAT
As to the kind of experiment: killing.

Assay [4] deals with T4, UTY peptide on HLA-A*02:01 (human).
T4 peptide: KAFQDVLYV
Description: killing.

The target of assay [5] is T5, 5T4 (trophoblast glycoprotein, TPBG) peptide on HLA-A*02:01 (human).
T5 peptide: RLARLALVL
Description: multimer staining.

Assay [6] has as its target T6, HLA-A*0201 on the surface of T2 cells (human).
T6 construct: Class I molecule that the test peptides load in the HLA-A2 stabilization assay; also called HLA-A2
Description: HLA-A2 stabilization on T2 cells, BB7.2 staining, flow cytometry. For orientation: In flow cytometry, cells or beads pass a laser one at a time.
Description: Aliquots of 2×10⁵ T2 cells were cultured in serum-free RPMI media supplemented with human β₂-microglobulin at 5 μg/mL plus the test peptide.

B1: Clone19-5C2 (TCR, V domains shown)
Valpha: AQTVTQSQPEMSVQEAETVTLSCTYDTSESDYYLFWYKQPPSRQMILVIRQEAYKQQNATENRFSVNFQKAAKSFSLKISDSQLGDAAMYFCAYRSGSDGGSQGNLIFGKGTKLSVKP
Vbeta: ETGVTQTPRHLVMGMTNKKSLKCEQHLGHNAMYWYKQSAKKPLELMFVYSLEERVENNSVPSRFSPECPNSSHLFLHLHTLQPEDSALYLCASSQVSGYEQYFGPGTRLTVT
Take B1: the binding result in assay [1] is reported as “no recognition”; in assay [2], “no recognition”; in assay [3], “no recognition”; in assay [4], “no recognition”; in assay [5], “recognises”.

B2: Clone3-6C3 (TCR, V domains shown)
Valpha: AQTVTQSQPEMSVQEAETVTLSCTYDTSESDYYLFWYKQPPSRQMILVIRQEAYKQQNATENRFSVNFQKAAKSFSLKISDSQLGDAAMYFCSSGGGADGLTFGKGTHLIIQP
Vbeta: NAGVTQTPKFRVLKTGQSMTLLCAQDMNHEYMYWYRQDPGMGLRLIHYSVGEGTTAKGEVPDGYNVSRLKKQNFLLGLESAAPSQTSVYFCASMDLAFKQYFGPGTRLTVT
With B2, the binding result in assay [1] was “no recognition”; in assay [2], “no recognition”; in assay [3], “no recognition”; in assay [4], “no recognition”; in assay [5] it was “recognises”.

B3: Clone21-7A10 (TCR, V domains shown)
Valpha: GQSLEQPSEVTAVEGAIVQINCTYQTSGFYGLSWYQQHDGGAPTFLSYNALDGLEETGRFSSFLSRSDSYGYLLLQELQMKDSASYFCAVRDDYGQNFVFGPGTRLSVLP
Vbeta: NAGVMQNPRHLVRRRGQEARLRCSPMKGHSHVYWYRQLPEEGLKFMVYLQKENIIDESGMPKERFSAEFPKEGPSILRIQQVVRGDSAAYFCASSPQGDNEQFFGPGTRLTVL
Consider B3, for which the binding result was “recognises” in assay [1]; “no recognition” in assay [2]; “no recognition” in assay [3]; “no recognition” in assay [4]; “recognises” in assay [5].
Take RLARAALVL (Alanine-substituted variant of 5T4p17) [L5A synthetic peptide RLARAALVL]: in assay [6], the binding result was “no binding”.
Consider RLARLALAL (Alanine-substituted variant of 5T4p17) [V8A synthetic peptide RLARLALAL], for which, in assay [6], the binding result is listed as “no binding”.
In the case of RLARLAAVL (Alanine-substituted variant of 5T4p17) [L7A synthetic peptide RLARLAAVL], the binding result in assay [6] was “no binding”.
On to ALARLALVL (Alanine-substituted variant of 5T4p17) [R1A synthetic peptide ALARLALVL], for which the binding result in assay [6] is “binds”.
As for RLAALALVL (Alanine-substituted variant of 5T4p17) [R4A synthetic peptide RLAALALVL], the binding result in assay [6] is on record as “binds”.

B4: Clone15-3F10 (TCR, V domains shown)
Valpha: AQTVTQSQPEMSVQEAETVTLSCTYDTSENNYYLFWYKQPPSRQMILVIRQEAYKQQNATENRFSVNFQKAAKSFSLKISDSQLGDTAMYFCASMYSGGGADGLTFGKGTHLIIQP
Vbeta: EAQVTQNPRYLITVTGKKLTVTCSQNMNHEYMSWYRQDPGLGLRQIYYSMNVEVTDKGDVPEGYKVSRKEKRNFPLILESPSPNQTSLYFCASSFFSNTGELFFGEGSRLTVL
In the case of B4, the binding result is on record as “recognises” in assay [1]; “no recognition” in assay [2]; “no recognition” in assay [3]; “no recognition” in assay [4]; “recognises” in assay [5].

B5: Clone2-6B8 (TCR, V domains shown)
Valpha: QKEVEQNSGPLSVPEGAIASLNCTYSDRGSQSFFWYRQYSGKSPELIMFIYSNGDKEDGRFTAQLNKASQYVSLLIRDSQPSDSATYLCAVPDDAGNMLTFGGGTRLMVKP
Vbeta: DAGITQSPRYKITETGRQVTLMCHQTWSHSYMFWYRQDLGHGLRLIYYSAAADITDKGEVPDGYVVSRSKTENFPLTLESATRSQTSVYFCASSELPAGGTNEQFFGPGTRLTVL
As for B5, the binding result in assay [1] is reported as “recognises”; in assay [2] it was “no recognition”; in assay [3], “no recognition”; in assay [4], “no recognition”; in assay [5], “recognises”.
